The source of these data is PMC12205087.

The target of assay [1] is NbaSPARDA complex (heterodimer of NbaAgo and DREN-APAZ), wild type (Novosphingopyxis baekryungensis). Briefly: cryo-EM structure; guide-bound complex: NbaSPARDA with 20-nt 5'-phosphorylated gRNA (1:1.2, 25 °C, 15 min), 0.4 mg/mL, buffer F (20 mM Tris-HCl pH 8.0, 200 mM NaCl, 2 mM DTT, 2 mM MgCl2); 2.93 Å, C2 symmetry.
Assay [2] has the same target. Put plainly: cryo-EM structure; active complex: NbaSPARDA with gRNA and 21-nt tDNA (1:1.2:1.2), 0.2 mg/mL; filament, 3.18 Å.
Assay [3] has as its target DREN-APAZ protein of the NbaSPARDA system, strep-tagged (Novosphingopyxis baekryungensis). Put plainly: cryo-EM structure; substrate-bound complex: NbaSPARDA with gRNA, 21-nt tDNA and substrate ssDNA, 0.16 mg/mL; filament, 3.19 Å.
Assay [4] has the same target. Put plainly: cryo-EM structure; active complex: NbaSPARDA with gRNA and 21-nt tDNA (1:1.2:1.2), 0.2 mg/mL; filament, 3.18 Å.

Turning to “NbaSPARDA complex (heterodimer of NbaAgo and DREN-APAZ), wild type”, the values for the stoichiometry N in assay [1] and in assay [2] were 2 and 32 copies, respectively.
On to “DREN-APAZ protein of the NbaSPARDA system, strep-tagged (natural protein)”, for which the stoichiometry N in assay [3] and in assay [4] was 4 in each case.
